Assay results published in the RNAGym collection of RNA variant scans (doi:10.1093/molbev/msab373).

B1: Azoarcus group I ribozyme (parent)
chain: GUGCCUUGCGCCGGGAAACCACGCAAGGGAUGGUGUCAAAUUCGGCGAAACCUAAGCGCCCGCCCGGGCGUAUGGCAACGCCGAGCCAAGCUUCGGCGCCUGCGCCGAUGAAGGUGUAGAGACUAGACGGCACCCACCUAAGGCAAACGCUAUGGUGAAGGCAUAGUCCAGGGAGUGGCGAAAGUCACACAAACCGG

Variants of: B1
Test: reverse-splicing fitness (ratio to wild type); higher = more active; in vitro selection; Mg2+ level not given
In short: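 An in vitro group I ribozyme library with randomized positions was T7-transcribed and gel-purified. In triplicate, 10 pmol RNA in EPPS pH 7.5 was reacted with 50 pmoles of a 30-nt RNA substrate for 1 h at 37 °C across several added MgCl2 levels (1–48 mM), then stopped with EDTA. Products were reverse transcribed from a substrate-complementary primer, PCR-amplified and sequenced (HiSeq 4000). Fitness is a variant's read proportion after selection over that before, normalised to wild type.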

| Variant | reverse-splicing fitness |
| --- | --- |
| GUGCCUUGCGCCGGGAAACCACGCAAGGGAUGGUGUCAAAUUCGGCGAAACCUAAGCGCCCGCCCGGGCGUAUGGCAACGCGGAGCCAAGCUUCGGCGCCUGCGCCGAUGGAGGUGUAGGGACUAGACGGCACCCACCUAAGGCCAACGAUAUGGUGAAGGCAUAGUCGAGGGAGGGGCGAAAGUCACACAAACCGG | 0.00603 |
| GUGCCUUGCGCCGGGAAACCACGCAAGGGAUGGUGUCAAAUUCGGCGAAACCUAAGCGCCCGCCCGGGCGUAUGGCAACGCGGAGCCAAGCUUCGGCGCCUGCGCCGAUGGAGGUGUAGGGACUAGACGGCACCCACCUAAGGCCAACGAUAUGGUGAAGGCAUAGUCGAGGGAGAGGCGAAAGUCACACAAACCGG | 0.0249 |
| GUGCCUUGCGCCGGGAAACCACGCAAGGGAUGGUGUCAAAUUCGGCGAAACCUAAGCGCCCGCCCGGGCGUAUGGCAACGCGGAGCCAAGCUUCGGCGCCUGCGCCGAUGGAGGUGUAGGGACUAGACGGCACCCACCUAAGGCCAACGAUAUGGUGAAGGCAUAGUCGAGGGAGCGGCGAAAGUCACACAAACCGG | 0.0187 |
| GUGCCUUGCGCCGGGAAACCACGCAAGGGAUGGUGUCAAAUUCGGCGAAACCUAAGCGCCCGCCCGGGCGUAUGGCAACGCGGAGCCAAGCUUCGGCGCCUGCGCCGAUGGAGGUGUAGGGACUAGACGGCACCCACCUAAGGCCAACGGUAUGGUGAAGGCAUAGUCGAGGGAGAGGCGAAAGUCACACAAACCGG | 0.00914 |
| GUGCCUUGCGCCGGGAAACCACGCAAGGGAUGGUGUCAAAUUCGGCGAAACCUAAGCGCCCGCCCGGGCGUAUGGCAACGCGGAGCCAAGCUUCGGCGCCUGCGCCGAUGGAGGUGUAGGGACUAGACGGCACCCACCUAAGGCCAACGGUAUGGUGAAGGCAUAGUCGAGGGAGCGGCGAAAGUCACACAAACCGG | 0.00887 |
| GUGCCUUGCGCCGGGAAACCACGCAAGGGAUGGUGUCAAAUUCGGCGAAACCUAAGCGCCCGCCCGGGCGUAUGGCAACGCGGAGCCAAGCUUCGGCGCCUGCGCCGAUGGAGGUGUAGGGACUAGACGGCACCCACCUAAGGCCAACGGUAUGGUGAAGGCAUAGUCGAGGGAGGGGCGAAAGUCACACAAACCGG | 0.00523 |
| GUGCCUUGCGCCGGGAAACCACGCAAGGGAUGGUGUCAAAUUCGGCGAAACCUAAGCGCCCGCCCGGGCGUAUGGCAACGCGGAGCCAAGCUUCGGCGCCUGCGCCGAUGGAGGUGUAGGGACUAGACGGCACCCACCUAAGGCCAACGGUAUGGUGAAGGCAUAGUCCAGGGAGCGGCGAAAGUCACACAAACCGG | 0.0133 |
| GUGCCUUGCGCCGGGAAACCACGCAAGGGAUGGUGUCAAAUUCGGCGAAACCUAAGCGCCCGCCCGGGCGUAUGGCAACGCGGAGCCAAGCUUCGGCGCCUGCGCCGAUGGAGGUGUAGGGACUAGACGGCACCCACCUAAGGCCAACGGUAUGGUGAAGGCAUAGUCCAGGGAGGGGCGAAAGUCACACAAACCGG | 0.00368 |
| GUGCCUUGCGCCGGGAAACCACGCAAGGGAUGGUGUCAAAUUCGGCGAAACCUAAGCGCCCGCCCGGGCGUAUGGCAACGCGGAGCCAAGCUUCGGCGCCUGCGCCGAUGGAGGUGUAGGGACUAGACGGCACCCACCUAAGGCCAACGGUAUGGUGAAGGCAUAGUCCAGGGAGAGGCGAAAGUCACACAAACCGG | 0.0082 |
| GUGCCUUGCGCCGGGAAACCACGCAAGGGAUGGUGUCAAAUUCGGCGAAACCUAAGCGCCCGCCCGGGCGUAUGGCAACGCGGAGCCAAGCUUCGGCGCCUGCGCCGAUGGAGGUGUAGGGACUAGACGGCACCCACCUAAGGCCAACGGUAUGGUGAAGGCAUAGUCUAGGGAGUGGCGAAAGUCACACAAACCGG | 0.00843 |
| GUGCCUUGCGCCGGGAAACCACGCAAGGGAUGGUGUCAAAUUCGGCGAAACCUAAGCGCCCGCCCGGGCGUAUGGCAACGCGGAGCCAAGCUUCGGCGCCUGCGCCGAUGGAGGUGUAGGGACUAGACGGCACCCACCUAAGGCCAACGGUAUGGUGAAGGCAUAGUCAAGGGAGUGGCGAAAGUCACACAAACCGG | 0.00962 |
| GUGCCUUGCGCCGGGAAACCACGCAAGGGAUGGUGUCAAAUUCGGCGAAACCUAAGCGCCCGCCCGGGCGUAUGGCAACGCGGAGCCAAGCUUCGGCGCCUGCGCCGAUGGAGGUGUAGGGACUAGACGGCACCCACCUAAGGCCAACGGUAUGGUGAAGGCAUAGUCGAGGGAGUGGCGAAAGUCACACAAACCGG | 0.00841 |
| GUGCCUUGCGCCGGGAAACCACGCAAGGGAUGGUGUCAAAUUCGGCGAAACCUAAGCGCCCGCCCGGGCGUAUGGCAACGCGGAGCCAAGCUUCGGCGCCUGCGCCGAUGGAGGUGUAGGGACUAGACGGCACCCACCUAAGGCCAACGAUAUGGUGAAGGCAUAGUCCAGGGAGCGGCGAAAGUCACACAAACCGG | 0.0132 |
| GUGCCUUGCGCCGGGAAACCACGCAAGGGAUGGUGUCAAAUUCGGCGAAACCUAAGCGCCCGCCCGGGCGUAUGGCAACGCGGAGCCAAGCUUCGGCGCCUGCGCCGAUGGAGGUGUAGGGACUAGACGGCACCCACCUAAGGCCAACGAUAUGGUGAAGGCAUAGUCCAGGGAGGGGCGAAAGUCACACAAACCGG | 0.00588 |
| GUGCCUUGCGCCGGGAAACCACGCAAGGGAUGGUGUCAAAUUCGGCGAAACCUAAGCGCCCGCCCGGGCGUAUGGCAACGCGGAGCCAAGCUUCGGCGCCUGCGCCGAUGGAGGUGUAGGGACUAGACGGCACCCACCUAAGGCCAACGAUAUGGUGAAGGCAUAGUCCAGGGAGAGGCGAAAGUCACACAAACCGG | 0.0127 |
| GUGCCUUGCGCCGGGAAACCACGCAAGGGAUGGUGUCAAAUUCGGCGAAACCUAAGCGCCCGCCCGGGCGUAUGGCAACGCGGAGCCAAGCUUCGGCGCCUGCGCCGAUGGAGGUGUAGGGACUAGACGGCACCCACCUAAGGCCAACGAUAUGGUGAAGGCAUAGUCUAGGGAGGGGCGAAAGUCACACAAACCGG | 0.00551 |
| GUGCCUUGCGCCGGGAAACCACGCAAGGGAUGGUGUCAAAUUCGGCGAAACCUAAGCGCCCGCCCGGGCGUAUGGCAACGCGGAGCCAAGCUUCGGCGCCUGCGCCGAUGGAGGUGUAGGGACUAGACGGCACCCACCUAAGGCCAACGAUAUGGUGAAGGCAUAGUCUAGGGAGAGGCGAAAGUCACACAAACCGG | 0.021 |
| GUGCCUUGCGCCGGGAAACCACGCAAGGGAUGGUGUCAAAUUCGGCGAAACCUAAGCGCCCGCCCGGGCGUAUGGCAACGCGGAGCCAAGCUUCGGCGCCUGCGCCGAUGGAGGUGUAGGGACUAGACGGCACCCACCUAAGGCCAACGAUAUGGUGAAGGCAUAGUCUAGGGAGCGGCGAAAGUCACACAAACCGG | 0.0128 |
| GUGCCUUGCGCCGGGAAACCACGCAAGGGAUGGUGUCAAAUUCGGCGAAACCUAAGCGCCCGCCCGGGCGUAUGGCAACGCGGAGCCAAGCUUCGGCGCCUGCGCCGAUGGAGGUGUAGGGACUAGACGGCACCCACCUAAGGCCAACGGUAUGGUGAAGGCAUAGUCCAGGGAGUGGCGAAAGUCACACAAACCGG | 0.00711 |
| GUGCCUUGCGCCGGGAAACCACGCAAGGGAUGGUGUCAAAUUCGGCGAAACCUAAGCGCCCGCCCGGGCGUAUGGCAACGCGGAGCCAAGCUUCGGCGCCUGCGCCGAUGGAGGUGUAGGGACUAGACGGCACCCACCUAAGGCCAACGUUAUGGUGAAGGCAUAGUCCAGGGAGUGGCGAAAGUCACACAAACCGG | 0.00975 |
| GUGCCUUGCGCCGGGAAACCACGCAAGGGAUGGUGUCAAAUUCGGCGAAACCUAAGCGCCCGCCCGGGCGUAUGGCAACGCGGAGCCAAGCUUCGGCGCCUGCGCCGAUGGAGGUGUAGGGACUAGACGGCACCCACCUAAGGCCAACGAUAUGGUGAAGGCAUAGUCAAGGGAGGGGCGAAAGUCACACAAACCGG | 0.00537 |
| GUGCCUUGCGCCGGGAAACCACGCAAGGGAUGGUGUCAAAUUCGGCGAAACCUAAGCGCCCGCCCGGGCGUAUGGCAACGCGGAGCCAAGCUUCGGCGCCUGCGCCGAUGGAGGUGUAGGGACUAGACGGCACCCACCUAAGGCCAACGAUAUGGUGAAGGCAUAGUCAAGGGAGCGGCGAAAGUCACACAAACCGG | 0.00767 |
| GUGCCUUGCGCCGGGAAACCACGCAAGGGAUGGUGUCAAAUUCGGCGAAACCUAAGCGCCCGCCCGGGCGUAUGGCAACGCGGAGCCAAGCUUCGGCGCCUGCGCCGAUGGAGGUGUAGGGACUAGACGGCACCCACCUAAGGCCAACGGUAUGGUGAAGGCAUAGUCUAGGGAGCGGCGAAAGUCACACAAACCGG | 0.0147 |
| GUGCCUUGCGCCGGGAAACCACGCAAGGGAUGGUGUCAAAUUCGGCGAAACCUAAGCGCCCGCCCGGGCGUAUGGCAACGCGGAGCCAAGCUUCGGCGCCUGCGCCGAUGGAGGUGUAGGGACUAGACGGCACCCACCUAAGGCCAACGGUAUGGUGAAGGCAUAGUCUAGGGAGGGGCGAAAGUCACACAAACCGG | 0.00615 |
| GUGCCUUGCGCCGGGAAACCACGCAAGGGAUGGUGUCAAAUUCGGCGAAACCUAAGCGCCCGCCCGGGCGUAUGGCAACGCGGAGCCAAGCUUCGGCGCCUGCGCCGAUGGAGGUGUAGGGACUAGACGGCACCCACCUAAGGCCAACGGUAUGGUGAAGGCAUAGUCUAGGGAGAGGCGAAAGUCACACAAACCGG | 0.0139 |
| GUGCCUUGCGCCGGGAAACCACGCAAGGGAUGGUGUCAAAUUCGGCGAAACCUAAGCGCCCGCCCGGGCGUAUGGCAACGCGGAGCCAAGCUUCGGCGCCUGCGCCGAUGGAGGUGUAGGGACUAGACGGCACCCACCUAAGGCCAACGAUAUGGUGAAGGCAUAGUCUAGGGAGUGGCGAAAGUCACACAAACCGG | 0.0075 |
| GUGCCUUGCGCCGGGAAACCACGCAAGGGAUGGUGUCAAAUUCGGCGAAACCUAAGCGCCCGCCCGGGCGUAUGGCAACGCGGAGCCAAGCUUCGGCGCCUGCGCCGAUGGAGGUGUAGGGACUAGACGGCACCCACCUAAGGCCAACGAUAUGGUGAAGGCAUAGUCGAGGGAGUGGCGAAAGUCACACAAACCGG | 0.00843 |
| GUGCCUUGCGCCGGGAAACCACGCAAGGGAUGGUGUCAAAUUCGGCGAAACCUAAGCGCCCGCCCGGGCGUAUGGCAACGCGGAGCCAAGCUUCGGCGCCUGCGCCGAUGGAGGUGUAGGGACUAGACGGCACCCACCUAAGGCCAACGGUAUGGUGAAGGCAUAGUCAAGGGAGAGGCGAAAGUCACACAAACCGG | 0.0102 |
| GUGCCUUGCGCCGGGAAACCACGCAAGGGAUGGUGUCAAAUUCGGCGAAACCUAAGCGCCCGCCCGGGCGUAUGGCAACGCGGAGCCAAGCUUCGGCGCCUGCGCCGAUGGAGGUGUAGGGACUAGACGGCACCCACCUAAGGCCAACGGUAUGGUGAAGGCAUAGUCAAGGGAGCGGCGAAAGUCACACAAACCGG | 0.009 |
| GUGCCUUGCGCCGGGAAACCACGCAAGGGAUGGUGUCAAAUUCGGCGAAACCUAAGCGCCCGCCCGGGCGUAUGGCAACGCGGAGCCAAGCUUCGGCGCCUGCGCCGAUGGAGGUGUAGGGACUAGACGGCACCCACCUAAGGCCAACGGUAUGGUGAAGGCAUAGUCAAGGGAGGGGCGAAAGUCACACAAACCGG | 0.00562 |
